Measured values published in paper PMC5109225.

Key:
[1] = target: Bemisia tabaci B Cyclophilin B protein (Bemisia tabaci B (endogenous in whitefly adults))
[2] = target: Bemisia tabaci B Cyclophilin B protein (Bemisia tabaci B (endogenous in whitefly adults)); remark: listed apart in the source

With “Tomato yellow leaf curl virus coat protein (in virions) (natural protein)” the TYLCV transmission rate to tomato test plants (one insect/plant) by whiteflies fed the Cyp inhibitor Cyclosporin A (2 μg/μl in 25% sucrose, 24 h) before virus acquisition; control fed 25% sucrose: 60% [1] was 27% and the TYLCV transmission rate to tomato test plants (one insect/plant) by whiteflies fed anti-CypB antibody (2 μg/μl in 25% sucrose, 24 h) before virus acquisition; control fed 25% sucrose: 60% [2] was 17%.
